# Data published in the nanobody polyreactivity screen of Harvey et al. (2022).
# Test: yeast display, Sf9 membrane polyspecificity reagent, FACS + sequencing; frameworks hold sequencing errors
# Procedure, shortened: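 Polyreactivity labels are assigned by the sorting gate from which each nanobody was recovered. The gates were low and high (top ~1%), set on anti-HA fluorescence for expression and streptavidin fluorescence for reagent binding. Before sorting, galactose-induced (36–48 hours) yeast display cells were stained for 1 hour at 4 °C with 10% biotinylated, detergent-solubilized Sf9 membrane reagent.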
row,Sequence,polyreactivity (PSR sort gate)
1,QVQHVESGGGLVQAGGSLRLSCAASGFIFRYYTMGLYRQAPGKERELVATISNSGRTYYADSVKGRFTISRDNAKNTVYLQMNSLKPEDTAVYYCNALRASTTALWGGYWGQGTQVTVSS,high polyreactivity
2,QVQHVESGGGLVQAGGSLRLSCAASGFIFTHYTMGWSRQAPGKESELVAVISSAGSTYYADSVKGRFTISRDNAKNTVYLQMNSLKPEDTAVYYCNKVVRQVHGRGLDYWGQGTQVTVSS,high polyreactivity
3,QVQHVESGGGLVQAGGSLRLSCAASGFIFTSYAMGWYRQAPGKERELVAVISASDGSTYYADSVKGRFTISRDNAKNTVYLQMNILKPEDTAVYYCNATEYLGGGGIVHVEFGYWGQGTQVTVSS,low polyreactivity
4,QVQHVESGGGLVQAGGSLRLSCAASGFTFGVNAMGWYRQAPGKERELVAVITSGGNTYYADSVKGRYTISRDNAKNTVYLQMNSLKPEDTAVYYCAADLSYTSYATRYQGDYWGQGTQVTVSS,low polyreactivity
5,QVQHVESGGGLVQAGGSLRLSCAASGFTIYYYAMGWYRQAPGKERELVAAISTRDGNTYYADSVKGRFTMSRDNAKNTVYLQMNSLKPEDTAVDYCAADYFRYYPYDYWGQGTQVTVSS,low polyreactivity
6,QVQHVESGGGLVQAGGSLRLSCAASGGIFPTYVMGWYRQAPGKERELVAAIDRNGTSTTYADSVMGRFTISRDNAKNTVYLQMNSLKPEDTAVYYCAAGYNDQTTAYDYWGQGTQVTVSS,low polyreactivity
7,QVQHVESGGGLVQAGGSLRLSCAASGIIFLRYGMGWYREAPGKERELVPAISSGGSTNYADSVKGRFTISRDNAKNTVYLQLNSLKPEDTAVYYCAALYGRGRPQDSTFLFDYWGPGTQVTVSS,low polyreactivity
8,QVQHVESGGGLVQAGGSLRLSCAASGIILRSNAMGWYRQAPGKERELVAAINYSGGRTYYADSVKGRFTISRDTAKNTVYLQMNSLKPEDTAVYYCAAGGYPYGLSRVKLYYWGQGTQVTVSS,high polyreactivity
9,QVQHVESGGGLVQAGGSLRLSCAASGITFGRNTKGWYRQAPGKERELVAAIDSGGNTYADSVKGRFTISRDNAKNTVYLQMNSLKPEDTAVYYCAVDGGEFSSYGYWGQGTQVTVSS,low polyreactivity
10,QVQHVESGGGLVQAGGSLRLSCAASGITFVDNAMGWYRQAPGKEREWVAVISSSGGSTYYADSVKGRFTISRDNAKNSVYLQMNSLKPEDTAVYYCAARNRFYRRPYDYWGQGTQVTVSS,high polyreactivity
11,QVQHVESGGGLVQAGGSLRLSCAASGLIYAYYAMGWYRHAPGKERELVAAISRSGVSTYYADSVKGRFTISRDNAKNTVYLQMNSVKPEDTAVYYCAARWRSGFTSGDYWGQGTQVTVSS,low polyreactivity
12,QVQHVESGGGLVQAGGSLRLSCAASGLTFPYYVMGWYRQAPGKERELVAAIDDGGGSTYYADSVKGRFTISRDNAKNTVYLQMNSLKPVDTAVYYCAAQVDYLAHYGYWGQGTQVTVSS,low polyreactivity
13,QVQHVESGGGLVQAGGSLRLSCAASGLTFSSYAMGWYRQAPGKERELVAAISLSGGRTYYADSVKGRFTISRDNAKNTVYLQMNSLKPEDTAVYYCAADPYANWCPYPAWYYGAYNYWGQGTQVTVSS,high polyreactivity
14,QVQHVESGGGLVQAGGSLRLSCAASGLTLYGYTMGWYRQAPGKERELVPTITTGGDSTYYADSVKGRFTISRDNAKNTVYLQMTSLKPEDTAVYYCSAFSYGWDYSYDYWGQGTQVTVSS,low polyreactivity
15,QVQHVESGGGLVQAGGSLRLSCAASGRIFAFYAMGWYRQAPGKEREFVAAITWSGTNTYYADSVKGRFTISRDNAKNTVYLQMNSLKPEDTAVYYCNARQYYKYGYWGQGTQVTVSS,high polyreactivity
16,QVQHVESGGGLVQAGGSLRLSCAASGRIFAVNTMGWYRPAPVKERELVAAITSTGRTYYADSVKGRFTISRDNAKNTVYLQMNSLKPEDSAVYYCAADFRYPYAHLPYGYWGQGTQVTVSS,high polyreactivity
17,QVQHVESGGGLVQAGGSLRLSCAASGRIFEIYAMGWYRPAPGKERYLVAAISWRGVSTYYADSVKGRFTISRDYAKNTVYLQMNSLKPEDTAVFYCNNDVDYFWYVEYDYWGQGTQVTVSS,low polyreactivity
18,QVQHVESGGGLVQAGGSLRLSCAASGRIFGWYAMGWYRQAPGKERELVAVISWRGRTYYADSVKGRFTISRDNAKNTVYLQMNSLKPEDTAVYYCNARSRSAYDYWGQGTQVTVSS,high polyreactivity
19,QVQHVESGGGLVQAGGSLRLSCAASGRIFHYYAMGWYRQAPGKERELVAAINKSGGRTYYADSVKGRFTISRDNAKNTVYLQMNSLKPEDTAVYYCNKRSVPGTYYPTPVRYKYDYWGQGTQVTVSS,high polyreactivity
20,QVQHVESGGGLVQAGGSLRLSCAASGRIFKYNAMGWYRPAPGKERELVAAISYSGGSTYYADSVKGRFTISRDNAKNTVYLQMNSVKPEDTEVYYCAKATTTREPKYGYWGQGTQVTVSS,high polyreactivity
21,QVQHVESGGGLVQAGGSLRLSCAASGRIFLHNAMGWYRQAPGKERELVAAITGGGSTYYADSVKGRFTISRDNAKNTVYLQMNSLKPEDTAVYYCATLGSLRYYWPGYDYWGQGTQVTVSS,low polyreactivity
22,QVQHVESGGGLVQAGGSLRLSCAASGRIFSINVMGWYRHAPGKERELVAAISKLGGSTYYADSVKGRFTISRDNAKNTVYLQMNSLKPEDTAVYYCAARRHYTYGNGPSRGGQMDYWGQGTQVTVSS,high polyreactivity

row,Sequence,polyreactivity (PSR sort gate)
1,QVQHVESGGGLVQAGGSLRLSCAASGRIFVPYAKGWYRQPPGKERELVADISLRGGTTYYADSVKGRFTISRDNAKNTVYLQMNSLKPEDTAVYYCAARGYVSVWRPYHWFVAGDYWGQGTQVTVSS,high polyreactivity
2,QVQHVESGGGLVQAGGSLRLSCAASGRIFWGYEMGWYRQAAGKEREFVAALSSGGGRTYYADSVKGRFTISRDNAKNTVYLQMNSLKPDDSGVYYSNAELNWYYYIHLDYWGQGTQVTVSW,low polyreactivity
3,QVQHVESGGGLVQAGGSLRLSCAASGRIFYCYAMGWYRQAPGKERELVAAISWSGGSTYYADSVKGRFTISRDNAKNTVYLQMNSLKPEDTAVYYCARRYRGGYKYDYWGQGTQVTVSS,high polyreactivity
4,QVQHVESGGGLVQAGGSLRLSCAASGRIINTYAMGWYRPAPGKERELVAAISWSGGSTYYADSVKGRFTISRDNAKNTVDLQMNSLKPEDTAVYYCNAAYYGYENLSKRGYWGQGTQVTVSS,high polyreactivity
5,QVQHVESGGGLVQAGGSLRLSCAASGRIIWQNAMGWDRQAPGKERELVAAISSRGGTTYYADSVKGRFTISRDNAKNTVYLQINSLKPEDTAVYYCAKEVWRHYLNLYDYWGQGTQVTVSS,low polyreactivity
6,QVQHVESGGGLVQAGGSLRLSCAASGRTFFSYAMGLYRHAPGKERELVAAITYSGGRTYYADSVKGRFTISRDNAKNTVYLQMNSLKPEDTAVYYCAATHYREKIDYWGQGTQVTVSS,low polyreactivity
7,QVQHVESGGGLVQAGGSLRLSCAASGRTFISNAMGWYRQAPGKERELVATINSGGSTNYADSVKGRFTISRDNAKNTVYLQMNSLKPEDTAVYYCARRVRYKHYDYWGQGTQLTVSS,high polyreactivity
8,QVQHVESGGGLVQAGGSLRLSCAASGRTFNYYAMGWYRQAPGKERELVAAISSSGGRTYYADSVKGRFTISRDNAKNTVYLQMNSLKPEDTAVYYCAADSFYYRPEYDYWGQGTQVTVSS,low polyreactivity
9,QVQHVESGGGLVQAGGSLRLSCAASGRTFRGYAMGWYRQAPGKERELVASISASGVRTYYADSVKGRFTISRDNAKNTVYLQMNSLKPEDTAVYYCNARHGGWYSVYYYWGQGTQVTVSS,high polyreactivity
10,QVQHVESGGGLVQAGGSLRLSCAASGRTFRNYAMGWYRQAPGKERELVAAISSGGSTNYADSVKGRFTISRDNAKNTVYLQMNSLKPEDTAVYYCAARQRAYYGPGFDYWGQGTQVTVSS,low polyreactivity
11,QVQHVESGGGLVQAGGSLRLSCAASGRTFRWYAMGWYRHAPGKERELVAGISRGGGSTTYADSVKGRFTISRDYAKNTVYLQMNSLKPEDTAVYYCAAYWGRTRYYGYDYYYWGQGTQLTVSS,high polyreactivity
12,QVQHVESGGGLVQAGGSLRLSCAASGRTFVNNAMGWYRQQPGKERELVAAITGSGGSTYYADSVKGRFTISRDNAKNTVYLLMNSLKPEDTAVYYCAKRLVGSRYLFDYWGQGTQVTVSS,low polyreactivity
13,QVQHVESGGGLVQAGGSLRLSCAASGRTFVTNAKGWYRQAPGKERELVAAISSSGGSTYYADSVKGRFTISRDNAKNTVYLQMNSLKPEDTAVYYCATDRYVTPRLRFDYWGQGTQVTVSS,low polyreactivity
14,QVQHVESGGGLVQAGGSLRLSCAASGRTLSFYAMGWYRQAPGKERELVAAINYSGGRTSYADSVKGRFTISRDNAKNTVYLQMNSLKPEDTAVYYCAKGVYPWGVYYWGQGTQVTVSS,low polyreactivity
15,QVQHVESGGGLVQAGGSLRLSCAASGSIFGVNVMGWYRQAPGKERELVAAISSGGGSTYYAESVKGRFTISRDNAKNTVYLQMNSLKPEDTAVYYCAARGQKYGSTYRMDYWGQGTQVTVSS,low polyreactivity
16,QVQHVESGGGLVQAGGSLRLSCAASGSIFLLYAMGCYSQAPGKERELVAAISTRDGSTYYADSVKGRFTISRDNAKNTVYLQMNSLKPEDTAVYYCATLYSYNYWGQGTQVTVSS,high polyreactivity
17,QVQHVESGGGLVQAGGSLRLSCAASGSIFTTYAMGWYRQAPGKERELVAAISSGGGTNYADSVKGRFTISRDNAKHTVYLQMNSLKPEDTAVYYCNKRYYRLQLHNAYGATPRRNYWGQGTQVTVSS,low polyreactivity
18,QVQHVESGGGLVQAGGSLRLSCAASGSIFYYYAMGWYRQAPGKERELVATISSSSGSTYADSVKGRFTISRDNAKNTVYLQMNSLKPEDTAVYYCAKDYWGQGTKVTVSS,low polyreactivity
19,QVQHVESGGGLVQAGGSLRLSCAASGSTFAYNDMGRYRQAPGKERELVADIRSGGNTNYADSVKGRFTISRDNAKNTVYLQMNSLKPEDTAVYYCATDGYRIDVYHPDYRYDYWGQGTQVTVSS,low polyreactivity
20,QVQHVESGGGLVQAGGSLRLSCAASGSTFGLYAMGWYRQAPGKERELVAAISRRGGSTYYADSVKGRLTISRDNAKNTVYLQMNSLRPVETAVYDCAAVTAYRFDTLGMDYWGQGTQVTVSS,high polyreactivity
21,QVQHVESGGGLVQAGGSLRLSCAASGSTFRYYAMGWYRQAPGKERELVAAITSSGTSTYYADSVKGRFTISRDNAKNTVYLQMNSLKPEDTAVYSCAAPPVYKWVSSRYDYWGQGTQVTVSS,low polyreactivity
